Test results taken from paper PMC9968394.

Columns and labels:
Experiment in all cases: SPR; Biacore; anti-OGT VNARs diluted to 100 nM; recombinant ncOGT in PBS at 50, 100, 200, 400 and 800 nM introduced successively; binding 120 s, dissociation 200 s in PBS; Langmuir model fit; who was immobilised is not said
[1] = biological target: anti-OGT VNAR 3F7 (Chiloscyllium plagiosum (whitespotted bambooshark))
[2] = biological target: anti-OGT VNAR 2D9 (Chiloscyllium plagiosum (whitespotted bambooshark))
[3] = biological target: anti-OGT VNAR 4G2 (Chiloscyllium plagiosum (whitespotted bambooshark))

Kd [1]: 53.4 nM | koff [1]: 0.00106 s⁻¹ | kon [1]: 19800 M⁻¹ s⁻¹ | Kd [2]: 35.5 nM | koff [2]: 0.000675 s⁻¹ | kon [2]: 19000 M⁻¹ s⁻¹ | Kd [3]: 89.7 nM | koff [3]: 0.00076 s⁻¹
B1: recombinant ncOGT protein (O-GlcNAc transferase) (enzyme)
chain: MASSVGNVADSTEPTKRMLSFQGLAELAHREYQAGDFEAAERHCMQLWRQEPDNTGVLLLLSSIHFQCRRLDRSAHFSTLAIKQNPLLAEAYSNLGNVYKERGQLQEAIEHYRHALRLKPDFIDGYINLAAALVAAGDMEGAVQAYVSALQYNPDLYCVRSDLGNLLKALGRLEEAKACYLKAIETQPNFAVAWSNLGCVFNAQGEIWLAIHHFEKAVTLDPNFLDAYINLGNVLKEARIFDRAVAAYLRALSLSPNHAVVHGNLACVYYEQGLIDLAIDTYRRAIELQPHFPDAYCNLANALKEKGSVAEAEDCYNTALRLCPTHADSLNNLANIKREQGNIEEAVRLYRKALEVFPEFAAAHSNLASVLQQQGKLQEALMHYKEAIRISPTFADAYSNMGNTLKEMQDVQGALQCYTRAIQINPAFADAHSNLASIHKDSGNIPEAIASYRTALKLKPDFPDAYCNLAHCLQIVCDWTDYDERMKKLVSIVADQLEKNRLPSVHPHHSMLYPLSHGFRKAIAERHGNLCLDKINVLHKPPYEHPKDLKLSDGRLRVGYVSSDFGNHPTSHLMQSIPGMHNPDKFEVFCYALSPDDGTNFRVKVMAEANHFIDLSQIPCNGKAADRIHQDGIHILVNMNGYTKGARNELFALRPAPIQAMWLGYPGTSGALFMDYIITDQETSPAEVAEQYSEKLAYMPHTFFIGDHANMFPHLKKKAVIDFKSNGHIYDNRIVLNGIDLKAFLDSLPDVKIVKMKCPDGGDNADSSNTALNMPVIPMNTIAEAVIEMINRGQIQITINGFSISNGLATTQINNKAATGEEVPRTIIVTTRSQYGLPEDAIVYCNFNQLYKIDPSTLQMWANILKRVPNSVLWLLRFPAVGEPNIQQYAQNMGLPQNRIIFSPVAPKEEHVRRGQLADVCLDTPLCNGHTTGMDVLWAGTPMVTMPGETLASRVAASQLTCLGCLELIAKNRQEYEDIAVKLGTDLEYLKKVRGKVWKQRISSPLFNTKQYTMELERLYLQMWEHYAAGNKPDHMIKPVEVTESA
